In PMC7040040:

Tests used:
[1] = target: humanized PBD-C06 with A97 of the VH framework substituted by murine T97 (human); assay: SPR; Biacore 3000; antibody captured on a CM5 chip via immobilised anti-mouse or anti-human antibody; monomeric Aβ peptides injected (240 µl, 30 µl/min), running buffer HBS-EP; 1:1 Langmuir binding model
[2] = target: humanized PBD-C06 (CDR-grafted IgG1:kappa version) (human); assay: as above
Sequence of humanized PBD-C06 (CDR-grafted IgG1:kappa version) (human) (heavy, as listed by the source, chain 1 of 2): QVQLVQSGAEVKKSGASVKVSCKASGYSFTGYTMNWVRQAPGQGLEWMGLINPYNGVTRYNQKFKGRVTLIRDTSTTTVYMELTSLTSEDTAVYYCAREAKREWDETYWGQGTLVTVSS
Sequence of humanized PBD-C06 (CDR-grafted IgG1:kappa version) (human) (light, as listed by the source, chain 2 of 2): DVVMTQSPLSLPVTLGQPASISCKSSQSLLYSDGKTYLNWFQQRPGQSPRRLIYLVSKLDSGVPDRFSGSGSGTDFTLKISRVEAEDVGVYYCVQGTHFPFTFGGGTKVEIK

Sequence of humanized PBD-C06 with A97 of the VH framework substituted by murine T97 (human) (heavy, as listed by the source, chain 1 of 2): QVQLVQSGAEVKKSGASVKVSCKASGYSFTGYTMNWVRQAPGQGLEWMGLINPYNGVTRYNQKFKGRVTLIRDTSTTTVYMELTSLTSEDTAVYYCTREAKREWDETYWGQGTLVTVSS
Sequence of humanized PBD-C06 with A97 of the VH framework substituted by murine T97 (human) (light, as listed by the source, chain 2 of 2): as the sequence (light, as listed by the source, chain 2 of 2) above

Kd [1]: 0.0053 µM | Kd [2]: 0.0435 µM
Substance: pE3-Aβ(3–18) monomer (peptide)
